No end group written: not given here. *: point of attachment. 6FAM = O=C1OC2(c3ccc(O)cc3Oc3cc(O)ccc32)c2cc(C(=O)*)ccc21
B1: 3BP-1 probe peptide, labeled with 6-carboxyfluorescein (peptide)
chain: 6FAM-APTMPPPLPP
B2: unlabeled p41 peptide (peptide)
chain: APSYSPPPPP
B3: p40 probe peptide, labeled with 6-carboxyfluorescein (peptide)
chain: 6FAM-APTYPPPLPP

biological target: recombinant purified ABL SH3 domain alone (human)
Sequence (chain, as listed by the source): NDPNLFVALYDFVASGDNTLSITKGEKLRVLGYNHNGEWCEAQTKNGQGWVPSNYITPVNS

Row | Kd | Binder
1 | 34000 nM | B1
2 | 1500 nM | B2
3 | 400 nM | B3

Source: article PMC4519180 (2015)
